{
  "source": "paper PMC5829645",
  "key": {"[1]": {"molecular_target": "T1, BmILF (interleukin enhancer binding factor homolog) (Bombyx mori (Bm12 cell cDNA), UniProt A0A1U9WZ16 1-382)", "T1 sequence": "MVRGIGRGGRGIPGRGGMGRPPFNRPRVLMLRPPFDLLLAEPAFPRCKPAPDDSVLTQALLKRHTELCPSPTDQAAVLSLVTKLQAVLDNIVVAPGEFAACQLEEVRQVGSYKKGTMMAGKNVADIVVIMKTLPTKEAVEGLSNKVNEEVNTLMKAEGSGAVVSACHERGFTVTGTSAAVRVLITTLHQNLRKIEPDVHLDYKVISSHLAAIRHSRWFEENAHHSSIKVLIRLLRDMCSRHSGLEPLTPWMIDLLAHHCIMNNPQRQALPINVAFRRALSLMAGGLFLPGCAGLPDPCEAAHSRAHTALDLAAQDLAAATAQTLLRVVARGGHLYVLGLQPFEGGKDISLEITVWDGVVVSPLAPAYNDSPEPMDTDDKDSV", "assay": "EMSA"}, "[2]": {"molecular_target": "T1, BmILF (interleukin enhancer binding …)", "assay": "EMSA", "remark": "listed apart in the source"}, "[3]": {"molecular_target": "T1, BmILF (interleukin enhancer binding …)", "assay": "competition"}},
  "data": [
    {"binder": "TTGTTGCACTGCTACTCGGCTCACTCGCGCATCGCACTGG (ssDNA)", "note": "[BmPOUM2 i-motif mutant probe]", "values": [
      {"measurement": "binding result", "setting": "[1]", "value": "no binding"}
    ]},
    {"binder": "TTGTTGCCCCGCCCCTCGGCCCCCTCGCGCCCCGCACTGG (structured_DNA)", "note": "[BmPOUM2 i-motif wild-type probe]", "values": [
      {"measurement": "binding result", "setting": "[2]", "value": "binds"}
    ]},
    {"binder": "TTGTTGCCCCGCCCCTCGGCCCCCTCGCGCCCCGCACTGG (structured_DNA)", "note": "[unlabeled wild-type i-motif cold probe]", "values": [
      {"measurement": "binding result", "setting": "[3]", "value": "binds"}
    ]}
  ]
}
